Data as given in patent publication US20250289897A1, “LEPTIN RECEPTOR AGONISTIC ANTIBODY AS MONO OR COMBO THERAPIES TO TREAT OBESITY” (ELI LILLY AND COMPANY, priority 2024, published 2025).
Marks after values point to notes of the source that are not given here.

Molecular target: T1, mutant LEPR-A409E (Homo sapiens, UniProt P48357, A409E)
T1 construct: expressed in transfected cells; host or cells: HEK293
T1 sequence (P48357 22-1165 A409E): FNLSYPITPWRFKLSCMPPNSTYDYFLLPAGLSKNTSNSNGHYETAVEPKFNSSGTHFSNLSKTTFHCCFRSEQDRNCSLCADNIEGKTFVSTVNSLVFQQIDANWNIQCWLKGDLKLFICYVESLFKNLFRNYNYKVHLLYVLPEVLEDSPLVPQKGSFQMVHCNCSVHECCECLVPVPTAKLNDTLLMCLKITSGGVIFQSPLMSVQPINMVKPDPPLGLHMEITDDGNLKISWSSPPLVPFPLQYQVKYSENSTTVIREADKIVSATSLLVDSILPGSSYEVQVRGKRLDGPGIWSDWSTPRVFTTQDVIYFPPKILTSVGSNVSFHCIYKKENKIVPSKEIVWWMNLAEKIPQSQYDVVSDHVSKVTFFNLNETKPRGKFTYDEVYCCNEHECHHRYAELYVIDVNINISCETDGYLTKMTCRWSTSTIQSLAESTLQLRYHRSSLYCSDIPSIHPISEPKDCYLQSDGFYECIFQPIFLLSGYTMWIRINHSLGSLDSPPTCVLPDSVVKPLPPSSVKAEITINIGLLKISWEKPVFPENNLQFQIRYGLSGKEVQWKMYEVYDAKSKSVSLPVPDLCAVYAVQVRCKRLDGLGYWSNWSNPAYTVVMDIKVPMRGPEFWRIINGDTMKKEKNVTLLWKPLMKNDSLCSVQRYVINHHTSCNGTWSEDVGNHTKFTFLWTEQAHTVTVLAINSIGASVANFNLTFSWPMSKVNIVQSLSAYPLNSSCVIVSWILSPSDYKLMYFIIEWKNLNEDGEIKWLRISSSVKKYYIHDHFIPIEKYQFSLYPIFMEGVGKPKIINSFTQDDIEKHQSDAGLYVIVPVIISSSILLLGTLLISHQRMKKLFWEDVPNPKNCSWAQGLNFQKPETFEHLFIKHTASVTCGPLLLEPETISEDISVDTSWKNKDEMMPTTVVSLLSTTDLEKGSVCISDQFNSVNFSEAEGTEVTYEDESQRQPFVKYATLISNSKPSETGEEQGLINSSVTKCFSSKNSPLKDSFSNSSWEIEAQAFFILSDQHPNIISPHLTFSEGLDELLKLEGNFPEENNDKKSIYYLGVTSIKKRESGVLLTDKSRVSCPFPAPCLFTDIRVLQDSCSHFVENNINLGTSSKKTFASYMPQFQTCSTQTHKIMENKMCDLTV
Assay: STAT3-Luciferase reporter assay in HEK293 cells that express hLEPR-A409E
Assay type: cell-based
Protocol: Missense mutation A409E in LEPR gene was associated with autosomal recessive early onset of obesity in human (Farooqi et al., 2007, N Engl J Med 356 (3): 237-247). […] To test whether the anti-LEPR antibodies can activate these mutant human LEPR receptors, the STAT3-Luciferase reporter assay was established using HEK293 cells that express hLEPR-A409E. These cells were cultured in growth medium DMEM/F12 (Gibco, #12430-054), 10% fetal bovine serum (FBS, Gibco, #10082-147), antibiotics (Gibco, #15240-062), Sodium Pyruvate (Gibco, #11360-070) and GlutaMax supplement (Gibco, #35050-061) in the presence of drug selection 250 μg/mL of Hygromycin (Invitrogen, #10687010) and 800 μg/mL of Geneticin (Corning, #30-234-C1).
Before plating the cells for luciferase assays, the poly-D-Lysine coated 96-well plates (Corning Inc, Bio Coat, #354651, Poly-D-Lysing coated) were rinsed once with phosphate buffered solution (PBS) and once by plating medium. Then, 20,000 to 24,000 STAT3-Luciferase reporter cells were seeded onto the poly-D-lysine 96-well plates in 100 μL/well plating medium consist of DMEM/F12 (3:1, Gibco, #93-0152DK), 10% fetal bovine serum (FBS, Gibco, #10082-147), 1x GlutaMax supplement (Gibco, #35050061) 20 mM HEPES (Gibco, #15630-080) and antibiotics (Gibco, 15240-062). After overnight culture at 37°° C. with 5% CO2, the culture medium was changed to 75 μL assay medium containing OPTI-MEM (Gibco, #31985-070) with 1% BSA (BSA Fraction V (7.5%), Gibco, #15260-037), 0.1% dialyzed fetal bovine serum (FBS, Gibco, #26400-044) for 1 hour at 37° C. with 5% CO2. Test articles were diluted into 25 μL assay medium and were added to each well. Cells were further incubated for 20 hours at 37° C. with 5% CO2. Cell lysing and One-Glo luciferase substrate solution (Promega, #E6120) were then added to each well, and relative luciferase units (RLUs) were measured on a ClarioStar plate reader. The concentration response curves were then plotted as raw RLU readings to the function of log drug concentrations. EC50 was calculated using GraphPad Prism software.

## human leptin: recombinant human leptin protein (SEQ ID NO:27), positive control
LEPR-A409E STAT3-luciferase
  Bottom (RLU): 451.8 RLU
  Hill Slope: 0.2011
LEPR-A409E, top of curve projected by GraphPad Prism software
  Top (RLU): 259289* RLU
STAT3-luciferase
  activation of LEPR-A409E: did not activate
